Changes are numbered by the printed parent chain. Numbers in names are those of the source. Where two headings read alike, the source gives them in different places.

Data set [1] relates to M1 mAChR. The format is physicochemical. Conditions: for stability relative to wild-type (retention of bound 3H-NMS), in words: BOG or DDM; for % 3H-NMS retained BOG / % loss/wt / mean % retained: 0.82% BOG; for % 3H-NMS retained BOG / % loss/wt / mean % retained / Stability (βOG in-situ) % L65A control: 4° C., 3 h; for % 3H-NMS retained BOG: whole E. coli BL21 cells, single culture; for % loss/wt: % loss relative to wild-type control; for mean % retained: mean of the cultures; for Stability (βOG in-situ) % L65A control / in-situ stability relative to L65A, in words: 0.82% β-octyl glucoside; for Stability (βOG in-situ) % L65A control: % loss(control)/% loss(mutant), mean±SEM of 3; for in-situ stability relative to L65A, in words: L65A background. On the procedure:
This concentration was determined by analysing wild-type M1 mAChRs expressed in the inner cell membranes of intact E. Coli strain BL21 cells. The cells were pre-labelled with the radiolabelled antagonist 3H—N-methyl scopolamine and resuspended to a pre-determined cell density (Absorbance at 600 nm=2.0) in a chosen buffer (in this case 50 mM sodium phosphate, 1 mM EDTA, pH 7.5). […] The wild-type M1 mAChRs were titrated by the addition of increasing concentrations of beta octyl glucoside dissolved in the same buffer for different times (e.g. 1 h, 2 h, 3 h, 5 h, 15 h) and at different temperatures (e.g. 4° C., 15° C.). The loss of specifically-bound radioligand was then measured after recovering the cells by centrifugation (15000×g, 15 min.). In the example, the centrifugation step was performed on duplicate 1 ml aliquots of the cells. The experiment was repeated 3 times. […] It will be appreciated that the cell density, detergent concentration and other parameters of the assay may be varied to adjust the loss of activity as appropriate.
(a) A state of in-situ destabilisation of a particular membrane protein in a particular cell membrane as a result of the addition of a particular concentration of a particular detergent, can be defined by the loss of the characteristic specific ligand binding activity of the membrane protein for a particular ligand of interest in the presence of a defined concentration of a particular detergent molecule or other solubilising agent.
A preferred version of the assay is destabilisation of a membrane protein-ligand complex in a detergent-enriched membrane. The membrane protein, either in a membrane preparation, or in intact cells in-vivo or ex-vivo, is pre-incubated with a labelled version of the ligand, the label, for instance, being a radioactive label, or a fluorescent label, and the binding step preferably being allowed to proceed to equilibrium, defined as the achievement of a time-invariant level of binding. To define membrane protein-independent, or non-specific, binding the binding step is performed with the addition of a second non-labelled ligand, called the competing ligand, having an appropriate membrane protein-specific pharmacology, at a concentration sufficient fully to occupy the binding sites of the membrane protein and thereby exclude the binding of the labelled ligand. The difference between the binding of the labelled ligand in the absence and presence of the competing ligand is defined as the specific binding of the labelled ligand. Measurement of binding requires a suitable method for separating and measuring bound ligand. Characteristically, this involves centrifugation of intact cells or membranes for a time and at a centrifugal force adequate to pellet them (for instance, 15000×g for 15 min in the case of E. coli cells, or 100,000×g for plasma membrane preparations), or filtration of a membrane suspension e.g. through a suitable filter paper such as glass fibre paper e.g. GF-B or GF-C followed by counting of radioactivity. Alternatively, it might involve the measurement of an optical signal such as enhancement of fluorescence emission in the case of fluorescent ligands.
To perform the in-situ destabilisation assay, a pre-determined concentration of the detergent or other destabilising agent of choice is mixed with a membrane or cell suspension containing the pre-labelled membrane protein in an appropriate buffer composition at a particular temperature and for a particular time, determined as described below.

For data set [2], the system named is M1 mAChR. Kind of data set: thermal stability (Tm) of partially purified [3H]NMS-labelled receptors in 0.1% dodecyl-β-maltoside. The class given is physicochemical, rat. Particulars: for Tm (0.1% DDM): incubation time 30 min, mean±range/SEM; for thermal stability (Tm) relative to L65A, in words: partially purified mutants; for Tm (0.1% DDM) / thermal stability (Tm) relative to L65A, in words: 0.1% DDM. The procedure: For measurements of thermal melting temperature (Tm), [3H]NMS-labelled receptors were partially purified by immobilized metal ion affinity chromatography from cultures grown from single clones expressed in E. Coli BL21 cells, essentially as described in Hulme and Curtis, 1998 (21). Tm measurements were carried out after gel-filtration of partially purified receptors into 50 mM sodium phosphate, 5 mM β-mercaptoethanol and 0.1% dodecyl-β-maltoside (DDM), using an incubation time of 30 min. Values were tabulated as mean±range/SEM of 2 or more independent measurements (Table 3).

B1: M145A: Ala-mutant in the transmembrane region of the M1 mAChR (protein)
chain: MNTSAPPAVSPNITVLAPGKGPWQVAFIGITTGLLSLATVTGNLLVLISFKVNTELKTVNNYFLLSLACADLIIGTFSMNLYTTYLLMGHWALGTLACDLWLALDYVASNASVMNLLLISFDRYFSVTRPLSYRAKRTPRRAALAIGLAWLVSFVLWAPAILFWQYLVGERTVLAGQCYIQFLSQPIITFGTAMAAFYLPVTVMCTLYWRIYRETENRARELAALQGSETPGKGGGSSSSSERSQPGAEGSPETPPGRCCRCCRAPRLLQAYSWKEEEEEDEGSMESLTSSEGEEPGSEVVIKMPMVDPEAQAPTKQPPRSSPNTVKRPTKKGRDRAGKGQKPRGKEQLAKRKTFSLVKEKKAARTLSAILLAFILTWTPYNIMVLVSTFCKDCVPETLWELGYWLCYVNSTINPMCYALCNKAFRDTFRLLLLCRWDKRRWRKIPKRPGSVHRTPSRQC
B1: in the data set on M1 mAChR [1], the “stability relative to wild-type (retention of bound 3H-NMS), in words” value was “smaller enhancements”.

B2: L151A: Ala-mutant in the transmembrane region of the M1 mAChR (protein)
chain: B1 chain with A145M, L151A
Take B2: the “stability relative to wild-type (retention of bound 3H-NMS), in words” value with M1 mAChR [1] is recorded as “smaller enhancements”.

B3: I73L: M1 mAChR mutant, substitution of another aliphatic amino acid at Ile 73 (protein)
chain: B1 chain with I73L, A145M
On to B3, for which the “extra increment of stability (full thermal stability assay)” value in the data set on M1 mAChR [2] (0.1% dodecyl maltoside) amounted to 0.9 °C.

B4: L65A + L151A: M1 mAChR double mutant (protein)
chain: B1 chain with L65A, A145M, L151A
B4: the “% 3H-NMS retained BOG” value in the data set with M1 mAChR [1] (listed as L65A + L151A 1) came to 70%; with M1 mAChR [1] (listed as L65A + L151A 2), 76%. In addition, the “% loss/wt” value with M1 mAChR [1] turned out to be 0.51. In the data set on M1 mAChR [1], this molecule returned a mean % retained of 73%.

B5: I119A: Ala-mutant in the transmembrane region of the M1 mAChR (protein)
chain: B1 chain with I119A, A145M
For the molecule B5, the “stability relative to wild-type (retention of bound 3H-NMS), in words” value in the data set with M1 mAChR [1] is reported as “reductions”.

B6: C69A: Ala-mutant in the transmembrane region of the M1 mAChR (protein)
chain: B1 chain with C69A, A145M
Take B6: the “stability relative to wild-type (retention of bound 3H-NMS), in words” value in the data set with M1 mAChR [1] was “reductions”.

B7: M384/27: Sequencing established that M384/27 is M384C (M1 mAChR) (protein, UniProt P11229 1-460, looked up, variant M384C)
Muscarinic acetylcholine …: B1 chain with A145M, M384C
Regarding B7, the “% 3H-NMS retained BOG” value is on record as 63% in the data set on M1 mAChR [1] (listed as M384/27 1) and 73% in the data set on M1 mAChR [1] (listed as M384/27 2). In addition, the “% loss/wt” value in the data set on M1 mAChR [1] is 0.6. In the data set with M1 mAChR [1], this molecule registered a mean % retained of 68%.

B8: L65A + M145A: M1 mAChR double mutant (protein)
chain: B1 chain with L65A
Take B8: the “% 3H-NMS retained BOG” value in the data set on M1 mAChR [1] (listed as L65A + M145A 1) was found to be 91%. Besides, in the data set with M1 mAChR [1] (listed as L65A + M145A 2), the “% 3H-NMS retained BOG” value worked out at 73%. Moreover, in the data set with M1 mAChR [1], the “% loss/wt” value was determined as 0.34 and the mean % retained was found to be 82%.

B9: L65A/I73A: M1 mAChR double mutant, Ala mutation on L65A background (protein, UniProt P11229 1-460, looked up, variant L65A I73A)
Muscarinic acetylcholine …: B1 chain with L65A, I73A, A145M
Take B9: in the data set with M1 mAChR [1], the “Stability (βOG in-situ) % L65A control” value amounted to 46 ± 2 % L65A control and the “in-situ stability relative to L65A, in words” value is recorded as “significantly reduced stability”. For the same molecule, in the data set on M1 mAChR [2], the “Tm (0.1% DDM)” value is 27.0 ± 0.5 °C and the “thermal stability (Tm) relative to L65A, in words” value is recorded as “reduced stability”.

B10: I383/21: Sequencing established that I383/21 is I383G (M1 mAChR) (protein, UniProt P11229 1-460, looked up, variant I383G)
Muscarinic acetylcholine …: B1 chain with A145M, I383G
As for B10, in the data set on M1 mAChR [1] (listed as I383/21 1), the “% 3H-NMS retained BOG” value came out at 70%. For the same molecule, in the data set on M1 mAChR [1] (listed as I383/21 2), the “% 3H-NMS retained BOG” value came to 62%. For the same molecule, in the data set with M1 mAChR [1], the “% loss/wt” value amounted to 0.64 and the mean % retained was determined as 66%.

B11: L148A: M1 mAChR mutant L148A (protein)
chain: B1 chain with A145M, L148A
For the molecule B11, in the data set with M1 mAChR [1] (listed as L148A 1), the “% 3H-NMS retained BOG” value stood at 74%. Besides, the “% 3H-NMS retained BOG” value with M1 mAChR [1] (listed as L148A 2) came out at 69%. In the data set on M1 mAChR [1], the “% loss/wt” value is given as 0.54 and the mean % retained worked out at 71.5%.

B12: L65G: M1 mAChR mutant L65G recovered by randomisation of the codon for position 65 (protein)
chain: B1 chain with L65G, A145M
Regarding B12, the “% 3H-NMS retained BOG” value with M1 mAChR [1] (listed as L65 G 1) is listed as 49%; in the data set on M1 mAChR [1] (listed as L65 G 2), 39%. Further, the “% loss/wt” value in the data set on M1 mAChR [1] was 1.06. The molecule further registered a mean % retained in the data set with M1 mAChR [1] of 44%.

B13: M384/40: Sequencing established that M384/40 is M384G (M1 mAChR) (protein, UniProt P11229 1-460, looked up, variant M384G)
Muscarinic acetylcholine …: B1 chain with A145M, M384G
As for B13, the “% 3H-NMS retained BOG” value stood at 71% in the data set on M1 mAChR [1] (listed as M384/40 1) and 82% in the data set on M1 mAChR [1] (listed as M384/40 2). Further, in the data set with M1 mAChR [1], the “% loss/wt” value was determined as 0.44. Further, the mean % retained in the data set with M1 mAChR [1] was determined as 76.5%.

B14: L65A/I74A: M1 mAChR double mutant, Ala mutation on L65A background (protein, UniProt P11229 1-460, looked up, variant L65A I74A)
Muscarinic acetylcholine …: B1 chain with L65A, I74A, A145M
Take B14: in the data set on M1 mAChR [1], the “Stability (βOG in-situ) % L65A control” value came to 51 ± 3 % L65A control and the “in-situ stability relative to L65A, in words” value is “significantly reduced stability”. Further, in the data set with M1 mAChR [2], the “Tm (0.1% DDM)” value turned out to be 28.8 ± 0.5 °C and the “thermal stability (Tm) relative to L65A, in words” value is recorded as “no change”.

The record behind these values is patent publication US9081020B2, “Mutant proteins and methods for selecting them” (Heptares Therapeutics Limited, priority 2008, dated 2015).
